Data as given in PMC5386588.

Biological target: PNR hinge-LBD (131–410) (human) (UniProt Q9Y5X4)
Assay: two-hybrid; as a1, yeast cultured in the presence of the cognate ligand of the AAD partner (T3 for TRβ)

Chain of UniProt Q9Y5X4 (Q9Y5X4 131-410): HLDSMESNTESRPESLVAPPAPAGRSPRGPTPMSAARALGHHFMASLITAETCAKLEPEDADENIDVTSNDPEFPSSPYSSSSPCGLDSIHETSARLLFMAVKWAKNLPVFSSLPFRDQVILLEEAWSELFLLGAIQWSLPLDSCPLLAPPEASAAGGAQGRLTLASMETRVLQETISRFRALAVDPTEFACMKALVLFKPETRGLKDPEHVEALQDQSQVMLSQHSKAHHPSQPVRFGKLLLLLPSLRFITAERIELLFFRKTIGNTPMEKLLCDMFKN

- fold induction of reporter activity by T3: 20 fold
Substance: near full-length VP16-TRβ1 construct (from UniProt P10828 1-461) (domain or fragment)
